According to PMC7793103:

Test system: HIV-1 reverse transcriptase (HXB2-RT) (HIV-1 (HXB2))
Assay: MST
Conditions: MST: 50 nM RNA complex titrated with RT; binding buffer, pH and temperature not stated; annealing buffer 10 mM Tris-HCl pH 7.5, 10 mM NaCl, 1 mM MgCl2, 140 mM …

MAL 5'UTR:tRNALys3
Kd: 1.36 µM
